Measured values from patent publication US20240218057A1 (ROCKEFELLER UNIVERSITY, published 2024).

B1: C918 (antibody, V domains shown)
VH: QVQLVESGGGLVKPGGSLRLSCTASGFTFSDYYMTWLRQAPGKGLEWVSYISSTSPYTSYADSVKGRFTISRDNARNSVYLQMNSLRAEDTAIYYCARVPPPQRLHPFDVWGQGTMVTVSS
VL: DIQMTQSPSTLSASVGDRVTITCRASQSISSWLAWYQQKPGKAPKLLIYQASSLESGVPSRFSGSGSGTDFTLTISSLQPDDFATYYCQQYFRYSWTFGQGTKVEI
B2: C1067 (antibody, V domains shown)
VH: QVQLVQSGAEVKKPGASVKVSCKASRDTFTTHYIHWVRQAPGQGLEWMGIINPSGGSISYAQKFQGRVTMTRDTSTSTVYMELSSLRSEDTAVYYCARGGIVPHLSNWFDPWGQGTLVTVSS
VL: EIVLTQSPGTLSLSPGERATLSCRASQSVSSSYLAWYQQKPGQAPRLLIYGASSRATGIPDRFTGSGSGTDFTLTISRLEPEDFAVYYCQQYGRSSGFTFGPGTKVDIK
B3: C1066 (antibody, V domains shown)
VH: EVQLVESGGGLVQPGRSLRLSCAASGFMFDDYAMHWVRQAPGKGLEWVSGINWSSADIGYVDSVKGRFTISRDNAKNSLYLQMNSLRTEDTAFYYCAKGWFGELLGGSDSWGQGTLVTVSS
VL: QLVLTQSSSASASLGSSVKLTCTLNSGHSSYIIAWHQQQPGKAPRYLMKLEGSGSYNKGSGVPDRFSGSSSGADRYLTISNLQFEDEADYYCATWDSNTQVFGGGTKLTVL
B4: C914 (antibody, V domains shown)
VH: QVQLQESGPGLVKPSQTLSLTCTVSGGSITSGDYYWTWIRQPPGKGLEWIGYIYYSGNTYYNLSLRSRITISEDTSKNQFSLKLRSVTAADTAVYYCARAMITFGGVIVVLDYWGQGTLVTVSS
VL: QSALTQPPSASGSPGQSVTISCTGTSTDVGGYNFVSWYQQHPGKAPKLMIYEVSKRPSGVPDRFSGSKSGNTASLTVSGLQAEDEADYYCSSYAGSNILYVFGTGTKVTVL
B5: C915 (antibody, V domains shown)
VH: QVQLQESGPGLVKPSQTLSLTCTVSGGSISSGDYYWSWIRQPPGKGLEWIGYIYYSDSTYYNPSLRTRVTISVDTSKNQFSLKLTSVTAADTAVYYCARAMITFGGVIVLYDYWGQGTLVTVSS
VL: QSALTQPPSASGSPGQSVTISCTGTSSDVGGYNYVSWYQQHPGKAPKLMIYEVTKRPSGVPARFSGSKSGNTASLTVSGLQAEDEADYYCSSYAGSILLYVFGTGTKVTVL
B6: C908 (antibody, V domains shown)
VH: EVQLVQSGAEVKKPGESLKISCKASGYSFTIYWIGWVRQMPGKGLEWMGIIYPGESETRYSPSFQGQVTISADKSISTAYLQWRSLKASDTAMYYCARGGPPGGVKLELTDYWGQGTLVTVSS
VL: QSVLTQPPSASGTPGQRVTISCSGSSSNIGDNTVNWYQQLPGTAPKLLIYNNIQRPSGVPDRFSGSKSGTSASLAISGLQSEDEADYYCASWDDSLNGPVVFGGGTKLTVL
B7: C1065 (antibody, V domains shown)
VH: EVQLVESGGGLIQPGGSLRLSCAASGFTVSRNYMSWVRQAPGKGLEWVSVIYSGGSTFYADSVKGRFTISRDNSKNTLYLQMNSLRAEDTAVYYCARGLPTGEGWNYFDYWGQGTLVTVSS
VL: QSALTQPASVSGSPGQSITISCTGTSSDIGGYHYVSWYQQHPGKAPKLMIYDVSNRPSGISNRFSGSKSGNTASLTISGLQAEDEADYYCSSYASSSVIFGGGTKLTVL
B8: C907 (antibody, V domains shown)
VH: QVQLQESGPGLVKPSETLSLTCTVSGGSITSYYWTWIRQSPGKGLEWIGYIYYIGSTNYNPSLKSRLTISLATSKNQFSLRLNSVTAADTAVYYCASYYNDTSGYSYGLDVWGQGTTVTVSS
VL: DIQMTQSPSSLSAFVGDRVTITCRAGQSISSYLHWYQQKPGKAPKLLIYATSTLQSGVPSRFSGRGSGTDFTLTISGLQPEDFATYYCQQSYSTPQTFGQGTKVEIK
B9: C912 (antibody, V domains shown)
VH: QVQLVESGGGVVQPGRSLRLSCAASGFSFSTYTMHWVRQTPDKGLEWVAVISDDGKNKYYADSMKGRFTISRDNSKNTLYLQMSSLRPEDTAVYYCARDLENVMIEVALESWGQGTLVTVSS
VL: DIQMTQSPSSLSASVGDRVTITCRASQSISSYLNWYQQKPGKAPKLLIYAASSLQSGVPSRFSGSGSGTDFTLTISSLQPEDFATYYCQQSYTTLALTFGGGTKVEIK
B10: C905 (antibody, V domains shown)
VH: QVQLQESGPGLVTPSQTLSLTCSVSGGSIHSRDFYWGWIRQHPGKGLEWIGHIYYTGNTYYNPSLKSRVTISADTSKNQFSLKLSSVTAADTAVYYCARATVVITLHWFDPWGQGTLVTVSS
VL: NFMLTQPHSVSESPGKTVTISCTGSGGSIASNYVQWYQQRPGSAPTTVIYEDNERPSGVPDRFSGSIDSSSNSASLTISGVKTEDEADYFCQSYDVGNPVIFGGGTKLTVL
B11: C906 (antibody, V domains shown)
VH: EVQLVESGGGLIKPGRSLRLSCTASGFTFGDYAMTWFRQAPGKGLEWVGFIRSKAYGGTTGYAASVKYRFTISRDDSKSIVYLQMDSLKTEDTAVYYCTRWDGWSQHDYWGQGTLVTVSS
VL: DIVMTQSPLSLSVTPGEPASISCRSSQSLLHSNGINYFDWYLQKPGQSPQLLIYLGSNRASGVPDRFSGSGSGTDFTLKISRVEAEDVGVYYCMQVLQIPYTFGQGTKLEI
B12: C903 (antibody, V domains shown)
VH: EVQLVESGGGLIQPGGSLRLSCAASGFIVSRNYMSWVRQAPGKGLEWVSIIYSGGSTFYADSVKGRFTISRDNSKNTVYLQMNSLRAEDTAVYYCARDYGDFYFDYWGQGTLVTVSS
VL: EIVLTQSPGTLSLSPGERATLSCRASQSVSSSYLAWYQQKPGQAPRLLIFDVSSRATGIPDRFSGSGSGTDFTLTISRLEPEDFAVYYCQQYGSSPRTFGQGTKVEIK
B13: C911 (antibody, V domains shown)
VH: QVQLVESGGGVVQPGGSLRLSCAASAFTFSSYAMHWIRQSPGKGLEWVAVISSDGSSKFYADSVKGRFTISRDNSKNTLYLQMNSLSAEDTAVYYCARDLENVLIEVALQDWGQGTLVTVSS
VL: DIQMTQSPSSLSASVGDRVTITCRASQSINSYLNWYQQKPGKAPKLLIYAASSLHSGVPSRFSGSGSGTDFTLTISSLQPEDFATYYCQQSYTTLALTFGGGTKVEIK
B14: C904 (antibody, V domains shown)
VH: QVQLQQWGAGLLKPSETLSLTCAVNGGSLSLYYWSWIRQSPGKGLEWIGEINHFGGSDYKPSLKSRVSISVDTSTNQFSLKLSSVTAADTAVYYCARKPLLHSNISPGAFDIWGQGTMVTVSS
VL: EIVLTQSPGTLSLSPGERATLSCRASQSVAGSYLAWYQQKPGQAPRLLIYGASSRATGVPDRISGSGSGTDFTLTISRLEPEDFAVYYCQQYTNTPRTFGGGTKVEI
B15: C916 (antibody, V domains shown)
VH: EVQLVESGGGLVQPGGSLRLSCAASGFTFSNYDMHWVRQATGRGLEWVSTIGTAGDTYYPGSVKGRFTISRENAKNSLYLQMNSLRAGDTALYYCARVRYDSSGYFWSLDYWGQGTLVTVSS
VL: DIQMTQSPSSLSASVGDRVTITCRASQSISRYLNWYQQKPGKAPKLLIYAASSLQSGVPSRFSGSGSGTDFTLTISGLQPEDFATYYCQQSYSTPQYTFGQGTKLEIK
B16: C917 (antibody, V domains shown)
VH: EVQLVESGGGLVQPGGSLRLSCAASGFTFSNYDMHWVRQATGKGLDWVSTIGTAGDTYYPGSVKGRFTISRENAKNSLYLQMNSLRAGDTAVYYCARVRFDTSGYFWSLDYWGQGTLVTVSS
VL: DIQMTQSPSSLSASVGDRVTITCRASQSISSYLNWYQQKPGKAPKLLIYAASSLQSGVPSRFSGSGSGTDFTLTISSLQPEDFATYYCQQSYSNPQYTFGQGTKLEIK
B17: C920 (antibody, V domains shown)
VH: QLQLQESGPGLVKPSETLSLTCAVSGGSISNSPFYWGWIRQPPGKGLECIGSIYYSGSTYYNPSLKSRVTISVDTSKKQFSLKLSSVTAADTAVYYCARHFADGSGRVVDSWGQGILVTVSS
VL: EIVLTQSPATLSLSPGERATLSCRASQSVSSYLAWYQQKPGQAPSLLIYDVSNRATGIPARFSGSGSGTDFTLTISSLEPEDFAVYYCQQRINWPLYTFGQGTKLEIK
B18: C921 (antibody, V domains shown)
VH: QLQLQESGPGLVKPSETLSLTCAVSGGSISNSPFYWAWIRQPPGKGLECIGSIYYTGSTYYNPSLKSRVTISVDTSTKQFSLKLRSVTAADTAVYYCARHFADGSGRVVDYWGQGTLVTVSS
VL: EIVLTQSPATLSLSPGERATLSCRASQSVTTYLAWYQQKPGQAPRLLIYDVSSRATGIPARFSGSGSGTDFTLTISSLEPEDFAVYYCQQRSNWPLYTFGQGTKLEIK
B19: C909 (antibody, V domains shown)
VH: QVQLVQSGAEVKKPGASVKVSCRASGYTFPNYDLNWVRQATGQGLEWMGWMNPNSGNTGYAQKFQGRITMTRITSISTAYMELSSLRSEDTAVYYCARGRANWNSNFLLDSWGQGTLVTVSS
VL: QSALTQPASVSGSPGQSITISCTGTSSDVGGYNLVSWYQQYPGNVPKLMIYEDAKRPSGVSNRFSGSKSANTASLTISGLQAEDEADYYCCSYAGSSTRYVFGTGTKVTVL
B20: C1068 (antibody, V domains shown)
VH: QVQLVESGGGVVQPGRSLRLSCAASGFTFSTFAMHWVRQAPGKGLEWVAVTSYDGSNKYYADSVKGRFTISRDNSKNTLYLQMNSLRAEDTAVYYCARGLLWFGESEYFQHWGQGTLVTVSS
VL: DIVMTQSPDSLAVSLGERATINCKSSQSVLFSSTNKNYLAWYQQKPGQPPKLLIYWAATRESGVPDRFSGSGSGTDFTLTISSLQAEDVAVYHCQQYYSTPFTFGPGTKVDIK
B21: C910 (antibody, V domains shown)
VH: QVQLVQSGAAVKKPGASVKVSCKASGYTFTSYDINWVRQAPGQGLEWMGWMNPNSGNTGFAQRFQGRATLSRDTSITTAYMELTTLRSEDTAVYYCARGRANYNSKFLLDNWGQGTLVTVSS
VL: QSALTQPASVSGSPGQSITISCTGTSSDVGSYNLVSWYQQHPGTAPKLMIYEGSKRPSGVSDRFSGYKSGNTASLTISGLQADDEADYYCCSFAGSTTRYVFGTGTRVTVL
B22: C1060 (antibody, V domains shown)
VH: EVQLVESGGDLVQPGGSLRLSCAASEIIVSRNYMNWVRQAPGKGLEWVSIIYSGGSTFYGDSVKGRFTISRDSSKNTLYLQMHGLRVEDTAIYYCARSYGDYYIDYWGQGTLVTVSS
VL: DIQMTQSPSSVSASVGDRVTITCRTSQSISTSLAWYQQKPGKAPKLLIYAASSLQRGVPSRFSGTGSGTDFTLTISSLQPEDFATYYCQQSSSSPPLFTFGPGTKVDIK
B23: C1057 (antibody, V domains shown)
VH: QVQLVQSGAEVKKPGSSVKVSCKASGGTFTTYIISWVRQAPGQGLEWMGGISPMLGTANYAQKFQGGVTITADESTTTAYMEMSGLRSEDTAVYYCARAHMYCSDGSCYRQSGYFDSWGQGTLVTVSS
VL: QSALTQPRSVSGSPGQSVTITCTGTSSNVGGYKYVSWFQQHPGKAPKFLIYDVSERSSGVPDRFSGSKSGNTASLTISGLQAEDEADYYCCSYAGKYTVVFGGGTRLTV
B24: C1063 (antibody, V domains shown)
VH: EVQLVQSGAEVKKPGESLKISCKGYGNSFNNYWIAWVRQMPVKGLEWMGVINPGDSDTRYSPSFQGQVTISVDKSISTAYLQWSSLKASDTAMYYCARTWSPAAVAFFDSWGQGTLVTVS
VL: NFMLTQPHSVSESPGKTVTISCTRSSDSIGSNYVQWYQQRPGSSPTIVIYEDSQRPSGVPHRFSGSFDSSSNSASLTISGLKTEDEADYYCQSWDSGNLVFGGGTKLTVL

Biological target: T1, SARS-COV-2 RBD (SARS-COV-2, UniProt P0DTC2 319-539)
T1 construct: also called WT RBD
Test: ELISA, RBD coated on plate

Going from B1 to B2, the EC50 rises from 1.78 ng/mL to 2.93 ng/mL (1.6-fold).

First: B3
Second: B4
The EC50 of the first is 1.9-fold higher: 3.01 ng/mL for the first, 1.59 ng/mL for the second.

Compared with B5, B6 is 2.7-fold lower in EC50: 3.49 ng/mL for the first, 1.27 ng/mL for the second.

B7 and B8 are within 1.5-fold of each other in EC50: 3.52 ng/mL for the first, 3.71 ng/mL for the second.

B9 and B10 are within 1.5-fold of each other in EC50: 2.45 ng/mL for the first, 3.06 ng/mL for the second.

First: B11
Second: B12
The EC50 of the first is 2.4-fold lower: 1.07 ng/mL for the first, 2.54 ng/mL for the second.

B13 and B14 are within 1.5-fold of each other in EC50: 2.36 ng/mL for the first, 3.31 ng/mL for the second.

Compared with B15, B16 is 1.9-fold lower in EC50: 1.97 ng/mL for the first, 1.05 ng/mL for the second.

First: B17
Second: B18
The EC50 of the first is 1.7-fold lower: 2.35 ng/mL for the first, 3.91 ng/mL for the second.

B19 and B20 are within 1.5-fold of each other in EC50: 3.24 ng/mL for the first, 2.48 ng/mL for the second.

B21 and B22 are within 1.5-fold of each other in EC50: 2.47 ng/mL for the first, 2.67 ng/mL for the second.

B23 and B24 are within 1.5-fold of each other in EC50: 2.17 ng/mL for the first, 3.04 ng/mL for the second.
